Assay results: patent US20240343811A1 (SHANDONG SIMCERE BIOPHARMACUTICAL, published 2024)
Where a chain is given by its changes, count along the chain named. Read-outs that look alike come from different tables or passages of the source.

T1: human CD16b (NA1), full length, on FlpinCHO cells (human, UniProt O75015 17-200)
T1 construct: also called FlpinCHO-human CD16b (NA1)
T1 chain: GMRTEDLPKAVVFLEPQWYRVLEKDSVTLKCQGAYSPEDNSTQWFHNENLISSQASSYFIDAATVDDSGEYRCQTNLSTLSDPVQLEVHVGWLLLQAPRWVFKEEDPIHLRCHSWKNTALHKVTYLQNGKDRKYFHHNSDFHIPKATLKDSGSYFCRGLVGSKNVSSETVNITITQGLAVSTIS

T2: human CD16b (NA2), full length, on FlpinCHO cells (human, UniProt O75015 17-200)
T2 construct: also called FlpinCHO-human CD16b (NA2)
T2 chain: T1 chain with R20S, N49S, D66N, V90I

T3: Human CD16b (NA1)-his (human)
T3 construct: entry holds ECD, linker, His tag and AVI tag
T3 chain: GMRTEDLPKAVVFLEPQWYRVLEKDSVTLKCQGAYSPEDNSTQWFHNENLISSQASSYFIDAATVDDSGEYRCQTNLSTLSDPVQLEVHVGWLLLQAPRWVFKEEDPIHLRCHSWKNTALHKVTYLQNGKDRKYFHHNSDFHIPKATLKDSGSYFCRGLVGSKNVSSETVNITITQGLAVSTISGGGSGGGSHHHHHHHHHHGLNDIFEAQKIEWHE

B1: VHH01 VHH-Fc antibody (Fc fusion)
chain: QVQLVESGGGLVQAGGSLRLSCVASRSTLTTYAVRWYRQAPGKQREWVAFISVDGNTNYPDSVKGRFIVSRDNAKNTVYLQMNSLKPEDTADYICRAGGQYWGQGTQVTVSSEPKSSDKTHTCPPCPAPEFEGGPSVFLFPPKPKDTLMISRTPEVTCVVVAVSHEDPEVKFNWYVDGVEVHNAKTKPREEQYNSTYRVVSVLTVLHQDWLNGKEYKCKVSNKALPAPIEKTISKAKGQPREPQVYTLPPSREEMTKNQVSLTCLVKGFYPSDIAVEWESNGQPENNYKTTPPVLDSDGSFFLYSKLTVDKSRWQQGNVFSCSVMHEALHNHYTQKSLSLSPGK
B2: VHH04 VHH-Fc antibody (Fc fusion)
chain: B1 chain with A24G, R26S, S84N
B3: VHH12-04 humanized VHH-Fc antibody (Fc fusion)
chain: EVQLVESGGGLVQPGGSLRLSCAASGITFSSYAMGWYRQAPGKQRELVAAINRFGLTNYADFVKGRFTISRDNAKNSLYLQMNSLRAEDTAVYYCNTGGVYSHPDYYTGTYWGQGTMVTVSSEPKSSDKTHTCPPCPAPEEFGGPSVFLFPPKPKDTLMISRTPEVTCVVVAVSHEDPEVKFNWYVDGVEVHNAKTKPREEQYNSTYRVVSVLTVLHQDWLNGKEYKCKVSNKALPAPIEKTISKAKGQPREPQVYTLPPSREEMTKNQVSLTCLVKGFYPSDIAVEWESNGQPENNYKTTPPVLDSDGSFFLYSKLTVDKSRWQQGNVFSCSVMHEALHNHYTQKSLSLSPGK
B4: VHH12-07 humanized VHH-Fc antibody (Fc fusion)
chain: B3 chain with A60V, F62S, M117Q

Experiments:
[1] = molecular target: T4, human CD16a (158F), full length, on FlpinCHO cells (human, UniProt P08637 17-254); assay: FACS on FlpinCHO cells
Procedure: (§1) The required cells were scale-up cultured in a T-75 cell culture flask to the logarithmic growth phase. The medium was aspirated, and the cells were washed twice with a PBS buffer and then digested with trypsin. After the digestion was terminated, the cells were washed twice with the PBS buffer. The cells were counted, and then the cell pellet was resuspended with a [PBS+2% (w/w) BSA] blocking solution to 2×10⁶ cells/ml, and added to a 96-well FACS reaction plate at 50 μl/well. […] 50 μl/well of the antibody to be detected was added at different concentrations, and incubated on ice for 1 hour. […] The mixture was centrifuged and washed 5 times with PBS, and FACS (FACS Canto II, purchased from BD Company) was used for detection and result analysis. Data analysis was performed by software (CellQuest) to obtain the mean fluorescence intensity (MFI) of the cells. Then, software (GraphPad Prism8) was used for analysis, data fitting and EC50 value calculation.

[2] = molecular target: T5, human CD16a (158V), full length, on cells (human, UniProt P08637 17-254); assay: FACS on FlpinCHO cells
T5 construct: also used as target for the bought Jurkat-NFAT reporter line stably expressing human CD16a (158V); also called FlpinCHO-human CD16a (158V); FlpinCHO-CD16a (158V)
Procedure: as §1

[3] = molecular target: T1, human CD16b (NA1), full length, on …; assay: FACS on FlpinCHO cells
Procedure: as §1
(§2) The binding of an antibody to be detected to FlpinCHO-human CD16b cells was detected according to the method of Example 3.1.

[4] = molecular target: T2, human CD16b (NA2), full length, on …; assay: FACS on FlpinCHO cells
Procedure: as §1, §2

[5] = molecular target: T5, human CD16a (158V), full length, on …; assay: cell-based or functional assay
[6] = molecular target: T4, human CD16a (158F), full length, on …; assay: FACS, biotinylated antibody
Procedure: as §1, with “The” for “The required cells were scale-up cultured in a T-75 cell culture flask to the logarithmic growth phase. The”
(§3) An antibody to be detected was labeled in advance according to the instructions of a biotin labeling kit (EZ-Link™ NHS-PEG4 Biotinylation Kit, purchased from Thermofisher Scientific, catalog number: 21455). […] Detection was performed according to the method of Example 3.1, wherein the biotinylated antibody was detected with fluorescein APC-labeled Streptavidin (High Concentration) (purchased from Biolegend, catalog number: 405243).

[7] = molecular target: T5, human CD16a (158V), full length, on …; assay: FACS, biotinylated antibody
Procedure: as §1, with “The” for “The required cells were scale-up cultured in a T-75 cell culture flask to the logarithmic growth phase. The”
as §3

[8] = molecular target: T6, Human CD16a (158F)-his (human); assay: SPR (Biacore), antibody captured on Protein A
T6 construct: entry holds ECD, AVI tag, linker and His tag
Procedure: (§4) A sample buffer and a running buffer were HBS-EP+ (10 mM HEPES, 150 mM NaCl, 3 mM EDTA and 0.05% surfactant P20) (GE Healthcare; BR-1006-69). The flow-through cell was set to 25° C. The sample block was set to 16° C. Both were pretreated with the running buffer. In each cycle, an antibody to be detected was first captured with a Protein A chip, and then a single concentration of CD16 antigen protein was injected. The binding and dissociation processes of the antibody and the antigen protein were recorded, and finally Glycine pH 1.5 (GE Healthcare; BR-1003-54) was used to complete chip regeneration. Binding was measured by injecting different concentrations of recombinant human CD16-ECD his proteins in a solution for 240 s with a flow rate of 30 μL/min, wherein a total of 5 concentrations were prepared by using 200 nM as a starting concentration (see the detailed results for the actual concentration in the test) and performing a 1:1 dilution. The dissociation phase was monitored for up to 600 s and was triggered by switching from a sample solution to a running buffer. The surface was regenerated by washing with a 10 mM glycine solution (pH 1.5) for 30 s at a flow rate of 30 μL/min. Bulk refractive index difference was corrected by subtracting the response obtained from the goat anti-human Fc surface. Blank injection was also subtracted (=double reference). For calculation of apparent KD and other kinetic parameters, Langmuir 1:1 model was used.

[9] = molecular target: T7, Human CD16a (158V)-his (human); assay: SPR (Biacore), antibody captured on Protein A
T7 construct: entry holds ECD, AVI tag, linker and His tag
Procedure: as §4

[10] = molecular target: T3, Human CD16b (NA1)-his; assay: SPR (Biacore), antibody captured on Protein A
Procedure: as §4

[11] = molecular target: T4, human CD16a (158F), full length, on …; assay: FACS, biotinylated antibody, +10 mg/mL human immunoglobulin
Procedure: as §1, with “The” for “The required cells were scale-up cultured in a T-75 cell culture flask to the logarithmic growth phase. The”
as §3

[12] = molecular target: T5, human CD16a (158V), full length, on …; assay: as above
Procedure: as §1, with “The” for “The required cells were scale-up cultured in a T-75 cell culture flask to the logarithmic growth phase. The”
as §3

[13] = molecular target: T8, CD16 on primary human NK cells (human, UniProt P08637 17-254); assay: FACS on human NK cells
T8 construct: whole, on cells; also called resting NK cells
Procedure: as §1
The binding of an antibody to be detected to freshly prepared human NK cells (Milestone Biotechnologies, catalog number: PB56-N-Custom) was detected according to the method of Example 3.1.

[14] = molecular target: T4, human CD16a (158F), full length, on …; assay: FACS on FlpinCHO cells; remark: listed apart in the source
Procedure: as §1
(§5) The binding of a humanized antibody to FlpinCHO-human CD16a cells was detected according to the method of Example 3.1.

[15] = molecular target: T5, human CD16a (158V), full length, on …; assay: FACS on FlpinCHO cells; remark: listed apart in the source
Procedure: as §1, §5

[16] = molecular target: T1, human CD16b (NA1), full length, on …; assay: FACS on FlpinCHO cells
Procedure: as §1, §2

[17] = molecular target: T2, human CD16b (NA2), full length, on …; assay: FACS on FlpinCHO cells
Procedure: as §1, §2

[18] = molecular target: T9, cynomolgus monkey CD16, full length, on FlpinCHO cells (cynomolgus monkey, UniProt Q8SPW2 17-254); assay: FACS on FlpinCHO cells
T9 construct: also called FlpinCHO-cyno CD16; Flipin CHO-cyno CD16
Procedure: as §1
Flipin CHO-cyno CD16 cells were subjected to FACS detection and data analysis according to the method of Example 3.1.

[19] = molecular target: T5, human CD16a (158V), full length, on …; assay: cell-based or functional assay; remark: listed apart in the source

T9 sequence (Q8SPW2 other isoform, or with tags, fused parts or gaps limits assumed): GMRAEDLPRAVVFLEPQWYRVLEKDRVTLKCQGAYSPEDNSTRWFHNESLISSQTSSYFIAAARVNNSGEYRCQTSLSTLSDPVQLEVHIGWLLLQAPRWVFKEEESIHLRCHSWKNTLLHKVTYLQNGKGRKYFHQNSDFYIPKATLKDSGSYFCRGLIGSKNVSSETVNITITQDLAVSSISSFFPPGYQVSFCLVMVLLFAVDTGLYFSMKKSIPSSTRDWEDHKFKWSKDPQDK

Binder | EC50 [1] | Maximum mean fluorescence intensity [1] | EC50 [2] | Maximum mean fluorescence intensity [2] | EC50 [3] | Maximum mean fluorescence intensity [3] | Maximum mean fluorescence intensity [4] | binding result [4] | EC50, activation activity for Jurkat cell [5] | Maximum fluorescence value [5] | EC50 [6] | Maximum mean fluorescence intensity [6] | EC50 [7] | Maximum mean fluorescence intensity [7] | Kd [8] | koff [8] | kon [8] | Kd [9] | koff [9] | kon [9] | further results
B1 | 0.91 nM | 4010 | 0.47 nM | 5000 | 0.85 nM | 49700 | 95 | no binding (tested: 100 nM) | 0.09 nM | 178000 | 0.56 nM | 4940 | 0.47 nM | 6400 | 108 nM | 0.00831 s⁻¹ | 76600 M⁻¹ s⁻¹ | 27 nM | 0.00373 s⁻¹ | 138000 M⁻¹ s⁻¹ | Kd [10]: 95.7 nM; koff [10]: 0.0485 s⁻¹; kon [10]: 507000 M⁻¹ s⁻¹; EC50 [11]: 1.21 nM; Maximum mean fluorescence intensity [11]: 6850; EC50 [12]: 1.15 nM; Maximum mean fluorescence intensity [12]: 9000
B2 | 0.66 nM | 7240 | 0.68 nM | 7660 | 1.33 nM | 41400 | 351 | no binding (tested: 100 nM) | 0.03 nM | 161000 | 0.32 nM | 6160 | 0.65 nM | 9200 | 23.4 nM | 0.00128 s⁻¹ | 54700 M⁻¹ s⁻¹ | 8.93 nM | 0.000738 s⁻¹ | 82600 M⁻¹ s⁻¹ | EC50 [13]: 0.74 nM; Maximum mean fluorescence intensity [13]: 2430; Kd [10]: 21.6 nM; koff [10]: 0.00265 s⁻¹; kon [10]: 122000 M⁻¹ s⁻¹; EC50 [11]: 1.51 nM; Maximum mean fluorescence intensity [11]: 7580; EC50 [12]: 1.51 nM; Maximum mean fluorescence intensity [12]: 10400
B3 |  |  |  |  |  |  |  |  |  |  |  |  |  |  | 50.5 nM | 0.0307 s⁻¹ | 607000 M⁻¹ s⁻¹ |  |  |  | EC50 [14]: 0.47 nM; Maximum mean fluorescence intensity [14]: 9410; EC50 [15]: 0.47 nM; Maximum mean fluorescence intensity [15]: 8090; EC50 [16]: 1.37 nM; Maximum mean fluorescence intensity [16]: 47200; Maximum mean fluorescence intensity [17]: 75400; EC50 [18]: 0.64 nM; Maximum mean fluorescence intensity [18]: 18300; EC50, activation activity for Jurkat cell [19]: 0.01 nM; Maximum fluorescence value [19]: 162000
B4 |  |  |  |  |  |  |  |  |  |  |  |  |  |  | 55.8 nM | 0.032 s⁻¹ | 574000 M⁻¹ s⁻¹ |  |  |  | EC50 [14]: 0.46 nM; Maximum mean fluorescence intensity [14]: 9180; EC50 [15]: 0.48 nM; Maximum mean fluorescence intensity [15]: 7950; EC50 [16]: 1.25 nM; Maximum mean fluorescence intensity [16]: 45500; Maximum mean fluorescence intensity [17]: 73200; EC50 [18]: 0.68 nM; Maximum mean fluorescence intensity [18]: 18500; EC50, activation activity for Jurkat cell [19]: 0.03 nM; Maximum fluorescence value [19]: 153000
